According to patent publication US20180030151A1 (MOGAM INSTITUTE FOR BIOMEDICAL RESEARCH, published 2018):
Like-named read-outs stand apart in the source and are kept apart here.

Legend:
[1] = molecular target: T1, recombinant human TFPI (tissue factor pathway inhibitor) (human, UniProt P10646 29-304); assay: cell-based or functional assay
[2] = molecular target: T1, recombinant human TFPI (tissue factor …); assay: cell-based or functional assay; remark: listed apart in the source
[3] = molecular target: T1, recombinant human TFPI (tissue factor …); assay: cell-based or functional assay; remark: listed apart in the source
[4] = molecular target: T1, recombinant human TFPI (tissue factor …); assay: cell-based or functional assay; remark: listed apart in the source
[5] = molecular target: T1, recombinant human TFPI (tissue factor …); assay: cell-based or functional assay; remark: listed apart in the source
[6] = molecular target: T1, recombinant human TFPI (tissue factor …); assay: cell-based or functional assay; remark: listed apart in the source
[7] = molecular target: TFPI in FVIII-deficient plasma (sample dilution); assay: cell-based or functional assay
[8] = molecular target: T1, recombinant human TFPI (tissue factor …); assay: cell-based or functional assay; remark: listed apart in the source
[9] = molecular target: T1, recombinant human TFPI (tissue factor …); assay: cell-based or functional assay; remark: listed apart in the source
[10] = molecular target: T1, recombinant human TFPI (tissue factor …); assay: SPR, Biacore T-200; IgG captured on protein A (CM5), TFPI as analyte
Description: Dissociation of the TFPI associated with the antibody was induced by running 10 mM glycine-HCl (pH 1.5) at a flow rate for 30 seconds. The affinities in terms of kinetic rate constants (Kₒₙ and Koff) and equilibrium dissociation constant (KD) were evaluated using Biacore T-200 evaluation software, and the results are shown in Table 24 below.

[11] = molecular target: T1, recombinant human TFPI (tissue factor …); assay: cell-based or functional assay; remark: listed apart in the source
[12] = molecular target: T1, recombinant human TFPI (tissue factor …); assay: cell-based or functional assay; remark: listed apart in the source

A405, TF/FVIIa/FX complex assay (FX 5 nM), Ab 100 nM [1]: 0.81 | FXa assay % of FXa alone, 2.5 nM Ab, 10 nM TFPI [2]: 8.7% | FXa assay % of FXa alone, 5 nM Ab, 10 nM TFPI [2]: 47.3% | FXa assay % of FXa alone, 10 nM Ab, 10 nM TFPI [2]: 89.6% | FXa assay % of FXa alone, 20 nM Ab, 10 nM TFPI [2]: 101% | FXa assay OD, 2.5 nM Ab, 10 nM TFPI [2]: 0.042 | FXa assay OD, 5 nM Ab, 10 nM TFPI [2]: 0.229 | FXa assay OD, 10 nM Ab, 10 nM TFPI [2]: 0.433 | FXa assay OD, 20 nM Ab, 10 nM TFPI [2]: 0.488 | FXa assay % of FXa alone, 2.5 nM Ab, 10 nM TFPI [3]: 7.9% | FXa assay % of FXa alone, 5 nM Ab, 10 nM TFPI [3]: 37.7% | FXa assay % of FXa alone, 10 nM Ab, 10 nM TFPI [3]: 84.3% | FXa assay % of FXa alone, 20 nM Ab, 10 nM TFPI [3]: 91.7% | FXa assay OD, 2.5 nM Ab, 10 nM TFPI [3]: 0.064 | FXa assay OD, 5 nM Ab, 10 nM TFPI [3]: 0.306 | FXa assay OD, 10 nM Ab, 10 nM TFPI [3]: 0.684 | FXa assay OD, 20 nM Ab, 10 nM TFPI [3]: 0.745 | FXa assay % of FXa alone, 2.5 nM Ab, 10 nM TFPI [4]: 5.2% | FXa assay % of FXa alone, 5 nM Ab, 10 nM TFPI [4]: 8% | FXa assay % of FXa alone, 10 nM Ab, 10 nM TFPI [4]: 52.7% | FXa assay % of FXa alone, 20 nM Ab, 10 nM TFPI [4]: 78.4% | FXa assay OD, 2.5 nM Ab, 10 nM TFPI [4]: 0.045 | FXa assay OD, 5 nM Ab, 10 nM TFPI [4]: 0.0695 | FXa assay OD, 10 nM Ab, 10 nM TFPI [4]: 0.459 | FXa assay OD, 20 nM Ab, 10 nM TFPI [4]: 0.682 | FXa assay % of FXa alone, 2.5 nM Ab, 10 nM TFPI [5]: 8.1% | FXa assay % of FXa alone, 5 nM Ab, 10 nM TFPI [5]: 16.2% | FXa assay % of FXa alone, 10 nM Ab, 10 nM TFPI [5]: 80.9% | FXa assay % of FXa alone, 20 nM Ab, 10 nM TFPI [5]: 92.8% | FXa assay OD, 2.5 nM Ab, 10 nM TFPI [5]: 0.096 | FXa assay OD, 5 nM Ab, 10 nM TFPI [5]: 0.193 | FXa assay OD, 10 nM Ab, 10 nM TFPI [5]: 0.963 | FXa assay OD, 20 nM Ab, 10 nM TFPI [5]: 1.1 | FXa assay % of FXa alone, 2.5 nM Ab, 10 nM TFPI [6]: 6.7% | FXa assay % of FXa alone, 5 nM Ab, 10 nM TFPI [6]: 26.6% | FXa assay % of FXa alone, 10 nM Ab, 10 nM TFPI [6]: 82.3% | FXa assay % of FXa alone, 20 nM Ab, 10 nM TFPI [6]: 84% | FXa assay OD, 2.5 nM Ab, 10 nM TFPI [6]: 0.051 | FXa assay OD, 5 nM Ab, 10 nM TFPI [6]: 0.203 | FXa assay OD, 10 nM Ab, 10 nM TFPI [6]: 0.626 | FXa assay OD, 20 nM Ab, 10 nM TFPI [6]: 0.639 | ETP vs negative control, thrombin generation assay, Ab 2.5 nM [7]: ~309% | thrombin peak vs blank, thrombin generation assay, Ab 2.5 nM [7]: ~401% | effect of inhibiting TFPI, FXa activity assay, Ab 10 nM [8]: ~84% | effect of inhibiting TFPI, FXa activity assay, Ab 20 nM [8]: ~86% | % of Normalized, TF/FVIIa/FX complex assay, Ab 1.56 nM [9]: 14.7% | % of Normalized, TF/FVIIa/FX complex assay, Ab 3.13 nM [9]: 17.5% | % of Normalized, TF/FVIIa/FX complex assay, Ab 6.25 nM [9]: 20.2% | % of Normalized, TF/FVIIa/FX complex assay, Ab 12.5 nM [9]: 31.6% | % of Normalized, TF/FVIIa/FX complex assay, Ab 25 nM [9]: 99.8% | % of Normalized, TF/FVIIa/FX complex assay, Ab 50 nM [9]: 102% | % of Normalized, TF/FVIIa/FX complex assay, Ab 100 nM [9]: 103% | Kd [10]: 30.1 pM | FXa assay % of FXa alone, 2.5 nM Ab, 10 nM TFPI [11]: 7.3% | FXa assay % of FXa alone, 5 nM Ab, 10 nM TFPI [11]: 25.2% | FXa assay % of FXa alone, 10 nM Ab, 10 nM TFPI [11]: 83.6% | FXa assay % of FXa alone, 20 nM Ab, 10 nM TFPI [11]: 85.5% | FXa assay OD, 2.5 nM Ab, 10 nM TFPI [11]: 0.06 | FXa assay OD, 5 nM Ab, 10 nM TFPI [11]: 0.208 | FXa assay OD, 10 nM Ab, 10 nM TFPI [11]: 0.691 | FXa assay OD, 20 nM Ab, 10 nM TFPI [11]: 0.707 | A405, TF/FVIIa/FX complex assay, Ab 1.56 nM [12]: 0.153 | A405, TF/FVIIa/FX complex assay, Ab 3.13 nM [12]: 0.167 | A405, TF/FVIIa/FX complex assay, Ab 6.25 nM [12]: 0.19 | A405, TF/FVIIa/FX complex assay, Ab 12.5 nM [12]: 0.259 | A405, TF/FVIIa/FX complex assay, Ab 25 nM [12]: 0.923 | A405, TF/FVIIa/FX complex assay, Ab 50 nM [12]: 0.905 | A405, TF/FVIIa/FX complex assay, Ab 100 nM [12]: 0.935
B1: clone 1023 (antibody, V domains shown)
VH: EVQLVESGGGLVKPGGSLRLSCAASGFTFSSYAMNWVRQAPGKGLEWVGTITTGGSYTYYADSVDGRFTISRDNAKNSLYLQMNSLRAEDTAVYYCARQDGNFLMDYWGQGTLVTVSS
VL: DVVMTQTPLSLPVTLGQPASISCKSSQSLLDIDGKTYLNWLQQRPGQSPKRLIYLVSKLDSGVPDRFTGSGSGTDFTLKISRVEAEDVGVYYCWQGTHFPFTFGQGTKVEIKR
notes: scFv on yeast at selection; human IgG4/kappa IgG as purified
